Test results taken from the DeepSol protein solubility set.

Experiment: soluble on expression in E. coli; label from the status in PepcDB or PDB records

| Sequence | soluble on expression in E. coli |
| --- | --- |
| MHIADMTMFYAPASGGVRTYLEAKHRHLWHYPGIRHSVLVPGASYRQANGIHEVPAPPLPFGNGYRFPLRRGPWRKVLRNLQPDLIEVGDPYLTAWAALDARRRLDVPVIGFYHSDLPLLVSNRMGAWLGTNADNYVSKLYGHFDRVLAPSRVMAEKLMRLGVADVHVQPLGVDLVTFHPSNRDPGLRQELGLDEETRLLVFAGRGSREKNLPVLLDAIQRLGDGYHLLLVGSNMPTRVPRNTSVVDHFCDSREVARLLASSDALLHAGDQETFGLVALEAMASGIPVVAVRAGALAEIVPERCGVLCAPNNGDAMACAVRELFSHDVELRGQRARRHVERQHAWDAVVAGLLLHYHAVLGDSEARFPRYGLEHHHHHH | not soluble |
| MHIDNVVFMKKVLDASAFINGYVPEGRENYTVRSVTEEIRDFRSMMILEDALREGRLKITEPDPESMKVVEDAISESGDIMRLSPTDMEVIGLAVSLRGKDDVTVITDDYTIQNTLKILGIGFRSVLTSGIRDTYSWRRVCTGCRRVYPLDYEFEECEICGSRIVRKRHRNLEHHHHHH | soluble |
| MHIKIDDLTGRQVVSLVNEHLHSMTLMSPPESIHALGLEKLRGPEITFWSAWEGDELAGCGALKELDTRHGEIKSMRTSASHLRKGVAKQVLQHIIEEAEKRGYERLSLETGSMASFEPARKLYESFGFQYCEPFADYGEDPNSVFMTKKLLEHHHHHH | soluble |
| MHILVTGAAGFIGSHTVLELLNSGYTVLCIDNFANAISDEHGNAISLKRVAQLTGKDVPFQNVDVCDEAALEKVFSENKFDGIIHLAALKAVGESVAKPLQYYSNNLVASLNLIQMCLKYNVKNFVFSSSATVYGPPSELPITEKSQTGQGITNPYGQTKYMMEQILIDVGKANPEWNVVLLRYFNPVGAHKSGLIGEDPKGVPNNLMPYVSQVAIGKLPVLTIYGDQFDTVDGTGVRDYIHVVDLAKGHVKAFDRIKTVGNIGTEIYNLGTGVGYSVRQMVDALKKVSGRDIPVKIGVPRPGDVASVYCDPSLAQEKLGWRAETGLEEMCADLWNWQTKNPQGFSA | not soluble |
| MHILVTGFAPFDNQNINPSWEAVTQLEDIIGTHTIDKLKLPTSFKKVDNIINKTLASNHYDVVLAIGQAGGRNAITPERVAINIDDARIPDNDDFQPIDQAIHLDGAPAYFSNLPVKAMTQSIINQGLPGALSNSAGTFVCNHTLYHLGYLQDKHYPHLRFGFIHVPYIPEQVIGKPDTPSMPLEKIVAGLTAAIEAISNDEDLHLALGTTE | not soluble |
| MHKDTHCAVVIDCWMNKLGEVNFENRPSRYPAFVEDVRKICGTKEIVFGLEDTRGFGRNLAAYLVGRKFEVKHVNPAYTSAVRLANPIIYKDDSYDAYCVARVLRDMVDTLKDAKHEDIFWTIRQMVKRRDLIVKSNVMNKNQLHSQLAYSYPSYRKFFAMIDSKSALCFWENYPSPEYIWNTIPEEIYQTIKPVHQALKIQRIHEIISMIERDGDTRKDYQPERDFIVRNIVKDIRHNKELIAEIDDELRKLIPLTGYKLHTMPGIDLVTEAQIISEIGDINRFPDSDKLARFMGLAPVQFSSAGKGKDQRCRNGNRALNAIFHFLAIQMVAVSASGKPRHPVFREYFEQKVKEGKNKPQALVCVARRLVRIIYGMMKTRTEYRPYEKVDDKN | soluble |
| MHKKADQPFMKEKRGSKLTVRAMPIQSKNLQISGICDVVEFVQDSEGIELSGVSGSYKAFPVEYKRGKPKKGDEDIVQLVAQAMCLEEMLVCRIDKGYLFYNEIKHRVEVPITDALRDKVVQMAKEMHHYYENRHTPKVKTGPFCNNCSLQSICLPKLMNKRSVKRYIEGRLSELEHHHHHH | not soluble |
| MHKNREKNAMRREVNRADIGGKSGNKVKDCHVTIIRSLLSQIKENSLRVLLTYRKLFTINTKIAVEFIINSCIVYYKRSPHLL | not soluble |
| MHKYRLVAKKGEGTFSEVLKAQCIKNGKYVAIKCMKNHFDSLDQVNNLREIQALRRLSPHANIIKLLEVLYDQPTGRLALVFELMDMNIYELIRGRRHYVAEERIKNYMYQLMKSMDHMHRNGIFHRDIKPENILIMDDCLKLADFGSCRGIYSKQPYTEYISTRWYRAPECLLTDGYYNYKMDMWGVGCVFFEIVSLFPLFPGTNELDQITKIHNILGTPPPDLLAKMKKRSAHMDFNFPPKEGSGVAKLIPHVNPECVDLIVKLLMYNPDERLSARQALRHPYFRDLREAEKRQKALLAPDVSNHFTAMEADKARQQQTVSSTGSDHEHPTSAGGDGGAGTGAVGTHDGSAAAAAAAAALPSISGARGHAGPEGGHDNDMG | not soluble |
| MHLYNLTLQGQSAINQAIQGNFSGTPKAQEIVVGRGSALELLTLDTVTGKIKVMCHQDIFGIVRSLLAFRLTAGTRDFIAVGSDSGRIVILQYNAEKTCFERLHQETFGKTGCRRIVPGHFLVGDPRGRALMIGAVERQKLVYIMNRDSEAHLTISSPLEAHKHHTLCYAMVGIDVGFENPTFACLEFDYEDADNDPTGEAAKRTQQTLTFYELDLGLNHVVRKYAEPLNDPGNLLIAVPGGNDGPSGVIVCCENYLVYKNLGDQPDIRCPIPRRRNELDDADRTMLIIATATHKTKNMYFFLVQAENGDIFKVTLETDEDLVSEMKLKYFDTVPPANALCILKSGFLFVAAEFGNHELYQIASLGEGDDDEFSSAMGFGENDAAFFEPHELKSLIPIDSMDSLSPLTDAVIGDIAREDAAQIYSLVGRGARSSLKVLRNGLEISEMAVSDLPGNPNAVWTVKKNIEDQYDSYIVVSFVNATLALTIGDTVEEASDSGFLPTTPTIGCAMIGDDSLVQIYSEGIRHIRADKRINEWKAPPRRQIVKCAVNRRQVAVALTGGELVYFELDLNGTLNEFTERKLFNADIACMTFSEISEGELNSRFLALGTVDNAVRIISLDPNDMLMPLSTQSLPCPPESILLIDTPNEDGKGVAAVHLNIGLQNGCLFRNTVDNVTGAIMDTRTRYLGTRPVKLFKVQCQGRSAILCTSSRSWLLYHFQRRFHLTPLSYANLEYAASFCSNQCSEGIVAISASTLRIIAAEKLGVAFNVQSFEHKMTPRRVAVHPSMPCLIVIETDHASYTEVTKNIKRNQMAADVEAMASDETEAQLAQEIATNLRERRLDERVYGAPRAARGKWASAISLISATSGDKLSYFELPQDENAKCVALVQFSKHPNEAMVLVGCGVNEVLNVHDIDPNDTSIRPTRGCVYTFHLSANGDRFDFLHRTETPLPVGAIHDFRGMALVGFGRFLRMYDIGQKKLLAKCENKNFPVSIVNIQSTGQRIIVSDSQESVHFLRYRKGDNQLVVFADDTTPRYVTCVCVLDYHTVAVADKFGNLAVVRLPERVNEDVQDDPTVSKSVWDRGWLNGASQKVELVSNFFIGDTITSLQKTSLMPGANEALVYTTIGGAIGCLVSFMSKDEVDFFTNLEMHVRSEYPPLCGRDHLAYRSYYAPCKSVIDGDICEQFSLMDTQKQKDVAEELGKTVSEISKKLEDIRTRYAF | not soluble |
| MHLYYLGPKGTFSYLAAKQFESHEQYDFIPLSNLHEVIQSVSKDKQAVGIVPIENSIEGTINIVADSLAHHDVYAHGEIQLDIDFSLYGHHSNSLDDIHKVYSIAPAISQTINYIHRQQFDYDYVDSTIQSLNMIKDGIGAIAPLGSGETYGYHTLDQHIQDYPHNVTRFLVVKNHTHFIEHPNTTIFLITPKYDKPGLLASVLNTFTLFNINLSWIESRPLKTQLGMYHFYVQADTAINNDVNKIISILETLDFQVKIIGAFNKKN | not soluble |
| MHNISAKKFLGYLKNKCLEFGVKVIEGNPAYTSIKCPNCGSRLSQLYKLADERALPSRLMYCFDCGFYADRDTVAVFNLIKRFTGLYPFSPKSNEPIAEGTVFPDEAMGLEHHHHHH | soluble |
| MHYCPGCSHGVVHKLIAEVIEEMGLTEETIGIAPVGCSVFAYRYIDIDWQEAAHGRAPALATAVKRLNPSKLVFTYQGDGDLAAIGTAETIHAANRGENIAIIFINNGIYGMTGGQMAPTTLEGMVTATCPQGRNVELNGYPLKIADMLALLDGTCLVTRQTVHNAAAVRKTKKMIQKAFENSMNRKGTSIVEVVSTCNTGWKMSPAASNDWMMENMAKQYPLGDLKNID | not soluble |
| MIAEAAAVEVQANEAPVVAPIMYKVESNDGKVFEISDEAVKQSNILSNLISTCAPEDVASMDPIPITNVTGNILKMVIEWCEKHKGEALPVEDDSVPKNINVPEWDTNFLKIDNEVLFDLIVACNYLDVPGLMNYGCKMVANMAIGKSPDELRIIFAIPTDEEDEAAERAAKEKAEAEKKAIADKDAAEPSTSK | soluble |
| MIAEFESRILALIDGMVDHASDDELFASGYLRGHLTLAIAELESGDDHSAQAVHTTVSQSLEKAIGAGELSPRDQALVTDMWENLFQQASQL | not soluble |
| MIAIISLPGISMASSKSLQQAIANIKIWHKGEQRAPHKPLLLLYVLAGYLNGHPRLFDYGTEIYEPLHSLLERFGPQRSQYRPDMPFWRLQGDGIWQLHNAERCSTAGSSRQPPVKELNEYHVAGGFDEQHYALVTGNKKLINTLAQQILEAHFTESIQEEIADELGFDLQQTRKQRDPLFRKNVLRAYNYQCAICGFNMRHDDTTVALEAAHIKWKQHGGPCEIPNGLALCAIHHKAFDKGSIGLDENMRVLVSDAVNGGGIVERLFWDFDGKTIALPQVRKNYPYEGFVGER | not soluble |
| MIAMIVKGGLAMAISNGHVSFKRPAWLGDSITANNGLATVHYHDILAADWDVERSDNLGISGSTIGSRYDAMAVRYQAIPEDADFIAVFGGVNDYGRDQPLGQYGDCDMTTFYGALMMLLTGLQTNWPTVPKLFISAIHIGSDFGGSFSAVTNGLGYRQSDYEAAIAQMTADYGVPHLSLYRDAGMTFAIPAQAAIYSVDTLHPNNAGHRVIARKLQSFLDSHFLEHHHHHH | soluble |
| MIASSPIDAAALRASVAAALDPSTAVATLARFDTHAPRLLDALSTLYGDHADYVTWLPQWLSALGVVAQARPAALRHLDDSRAPGWFGQQDMLGYSAYVDRFAGTLRGVAERVPYLQELGVRYLHLLPFLRARAGDNDGGFAVSDYGQVEPALGSNDDLVALTARLRAANISLCADFVLNHTADDHAWAQAARAGDTRYLDYYHHFADRNAPDQYDTTLVQVFPQTAPGNFTWVDETRQWMWTTFYPYQWDLNWSNPAVFGEMALAMLELANLGVEAFRLDSTAYLWKRPGTNCMNQPEAHTILVALRAVADIVAPSVVMKAEAIVPMAELPPYFGSGVQRGHECHLAYHSTLMAAGWSALALQRGDILQDVIAHSPPLPPNCAWLSYVRCHDDIGWNVLQHEAAGTAAQPPFSLREVAQFYANAVPGSYARGESFQSSGDGVHGTNGMSAALVGVQAAHEHADAAAAARAVDRLVLLYAVSLAMPGVPLIYMGDELALPNDTAYLDDAQRRHEGRWLHRPAMAWELAAQRHDASTLAGTVYTRLRALIRLRAGLPALAATQSLGSVALGDARLFALTRGDSFLAVHNFSDVPLPVDLTQTGHALWAVLDTDGTGDAPEPHTELLLPAYGVRWLQRR | soluble |
| MICCLGPRGSYSEKAAVTFSKAINDSEIQFEDSIYNVFKAVETNPEFFGVVPSENSIGGSVSITQDLLLEFPVKILGEVDISINHCLLGYDIKKVTEVLAHPQALAQCGHYITKNNWNITPVDSNAKAAKIVSEEKDEKLAAICGVENAEIYGLNVLDEYIQDFKNNTTRFFLICNKNK | not soluble |
